# Entries after “also recorded” stand apart in the source; their conditions may differ.
# Key:
# [1] = molecular target: T1, integrin αvβ6 (BxPC-3 cells) (Homo sapiens, UniProt P06756+P18564); experiment: Competition binding assay, BxPC-3
# T1 construct: endogenous in cells; host or cells: BxPC-3 (whole adherent cells)
# Description: The reaction volume was made up to 30 µl with water. The reaction was carried out for 10 minutes at 80°C.
# For competitive radioligand binding assay, approximately 50,000 cells (BxPC-3 or Capan-2) per well were seeded in a 96 well plate incubated overnight at 37°C. […] After 2 hours of incubation, cells were washed for 2-3 times with ice-cold washing buffer (50 mM Tris-HCl, pH 7.4, 125 mM NaCl, 0.05% BSA) and lysed with 1 N NaOH (80 µl/well). The lysed cells were transferred to vials and measured in a gamma counter (Wallac 1470 Wizard, Perkin Elmer, Waltham, MA, USA). Obtained cpm values were plotted with GraphPad Prism and the data fitted using nonlinear regression (one site - fit Ki, one site - fit logIC50).
# All statistical analyses were performed using GraphPad Prism 5.04. IC50 values were determined by nonlinear sigmoidal curve fitting with variable slope setting. All presented data are based on independent experiments. Numerical data for this study have been deposited in an open data repository for public access: http://doi.org/10.5281/zenodo.4362503.
# [2] = Dosimetric calculation for human adult male (OLINDA/EXM 1.1)
# Excerpt: Assuming that the organ-to-whole-body activity concentration ratio in mice would equal that in humans, the injected activity concentration (%IA/g) acquired from the mouse biodistribution study was transformed to human whole-organ percentage of injected activity per gram of tissue (%IA/g) human. The mouse uptake data were extrapolated to humans by relative scaling of mass and time using the following two equations,
# (1) (%IA/organ)human=[(%IA/g)mouse×Mmouse(kg)×[m(g)/M(kg)]human
# (2) thuman=tanimal[Mhuman/Manimal]^0.25
# where %IA/g is percentage of injected activity per gram of tissue, %IA/organ is percentage of injected activity per organ; m is organ mass of mouse or human, M is body mass of mouse or human; t is time. The absorbed doses per activity were calculated by using the extrapolated human source organ residence times as input in the OLINDA/EXM 1.1 software (Organ Level Internal Dose Assessment Code, Vanderbilt University, Nashville, USA), with the reference adult male ([25]).
# [3] = adult male human, extrapolated from mouse biodistribution
# T1 sequence (P06756 31-889 limits assumed): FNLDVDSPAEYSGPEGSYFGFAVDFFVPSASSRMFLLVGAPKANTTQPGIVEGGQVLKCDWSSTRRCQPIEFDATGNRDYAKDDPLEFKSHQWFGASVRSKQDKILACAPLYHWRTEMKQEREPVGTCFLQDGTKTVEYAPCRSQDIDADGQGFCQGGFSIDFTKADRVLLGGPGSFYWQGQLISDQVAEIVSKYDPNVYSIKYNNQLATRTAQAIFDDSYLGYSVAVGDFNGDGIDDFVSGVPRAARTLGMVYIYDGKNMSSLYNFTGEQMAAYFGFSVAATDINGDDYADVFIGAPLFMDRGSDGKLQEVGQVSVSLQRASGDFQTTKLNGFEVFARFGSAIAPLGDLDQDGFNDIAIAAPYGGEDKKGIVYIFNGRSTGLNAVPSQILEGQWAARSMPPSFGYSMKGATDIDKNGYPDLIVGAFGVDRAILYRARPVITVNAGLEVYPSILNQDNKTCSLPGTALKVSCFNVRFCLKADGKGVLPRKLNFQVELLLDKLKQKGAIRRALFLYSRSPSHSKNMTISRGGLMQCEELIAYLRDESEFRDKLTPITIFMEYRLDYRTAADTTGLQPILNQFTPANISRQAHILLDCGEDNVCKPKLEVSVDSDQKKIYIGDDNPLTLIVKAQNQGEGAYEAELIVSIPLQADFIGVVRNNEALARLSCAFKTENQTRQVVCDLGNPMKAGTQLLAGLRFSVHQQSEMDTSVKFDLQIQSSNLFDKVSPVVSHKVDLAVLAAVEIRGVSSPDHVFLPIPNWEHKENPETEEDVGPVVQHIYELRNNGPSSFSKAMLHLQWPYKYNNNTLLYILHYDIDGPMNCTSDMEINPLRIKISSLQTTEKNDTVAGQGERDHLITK
# T1 sequence (P06756 891-1048 partner limits assumed): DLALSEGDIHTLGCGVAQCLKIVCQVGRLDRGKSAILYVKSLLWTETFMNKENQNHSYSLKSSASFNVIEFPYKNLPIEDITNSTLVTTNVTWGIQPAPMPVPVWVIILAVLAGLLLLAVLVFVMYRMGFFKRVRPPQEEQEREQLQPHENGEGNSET
# T1 sequence (P18564 22-788): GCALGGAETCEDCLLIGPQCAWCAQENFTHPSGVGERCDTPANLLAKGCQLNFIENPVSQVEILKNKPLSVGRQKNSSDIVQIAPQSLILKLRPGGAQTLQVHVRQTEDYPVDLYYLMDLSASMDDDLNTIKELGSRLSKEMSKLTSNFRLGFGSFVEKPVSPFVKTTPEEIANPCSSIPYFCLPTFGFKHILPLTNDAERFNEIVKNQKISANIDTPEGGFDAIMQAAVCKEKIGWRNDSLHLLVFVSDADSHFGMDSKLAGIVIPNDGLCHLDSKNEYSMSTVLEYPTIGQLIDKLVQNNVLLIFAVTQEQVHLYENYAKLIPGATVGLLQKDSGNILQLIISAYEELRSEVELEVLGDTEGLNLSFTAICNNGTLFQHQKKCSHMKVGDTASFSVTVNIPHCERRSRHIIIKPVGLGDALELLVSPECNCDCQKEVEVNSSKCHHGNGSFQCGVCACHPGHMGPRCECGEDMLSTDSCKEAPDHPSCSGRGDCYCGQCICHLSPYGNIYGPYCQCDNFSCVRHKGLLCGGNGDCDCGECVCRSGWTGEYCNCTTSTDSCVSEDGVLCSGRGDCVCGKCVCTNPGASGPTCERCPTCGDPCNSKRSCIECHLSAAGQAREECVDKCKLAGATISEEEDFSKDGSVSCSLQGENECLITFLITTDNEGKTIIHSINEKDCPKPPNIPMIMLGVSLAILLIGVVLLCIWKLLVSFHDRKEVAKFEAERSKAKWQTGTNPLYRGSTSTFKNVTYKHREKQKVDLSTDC
structure (smiles),measurement,setting,value
"CC[C@H](C)[C@@H]1NC(=O)[C@@H](NC(=O)CNC(=O)CN2CCN(CC(=O)O)CCN(CC(=O)O)CCN(CC(=O)O)CC2)CSSC[C@@H]2NC(=O)[C@H](C)NC(=O)CNC(=O)[C@@H]3CCCN3C(=O)[C@@H]3CSSC[C@@H](C(=O)NCC(=O)O)NC(=O)[C@H](Cc4ccc(O)cc4)NC(=O)CNC(=O)[C@H](CC(N)=O)NC(=O)CNC(=O)[C@H](CCCNC(=N)N)NC(=O)[C@H](CSSC[C@H](NC(=O)[C@H](CCCNC(=N)N)NC(=O)[C@H](Cc4ccccc4)NC(=O)[C@H](CC(C)C)NC(=O)[C@H](CC(C)C)NC(=O)[C@H]([C@@H](C)O)NC(=O)CNC(=O)[C@H](CC(C)C)NC(=O)[C@H](CC(=O)O)NC(=O)[C@H]([C@@H](C)O)NC(=O)[C@H](CCCNC(=N)N)NC(=O)CNC(=O)[C@H](CC(N)=O)NC(=O)[C@H](CC(C)C)NC1=O)C(=O)N[C@@H](CCCNC(=N)N)C(=O)N[C@@H](CCCNC(=N)N)C(=O)N[C@@H](CC(=O)O)C(=O)N[C@@H](CO)C(=O)N[C@@H](CC(=O)O)C(=O)N3)NC(=O)[C@H]([C@@H](C)CC)NC2=O [^177Lu-DOTA-integrin αvβ6 knottin, metal not drawn]",Binding affinity of the ^177Lu tracer,[1],low single-digit nanomolar range; also recorded: high affinity and specific binding to target-positive cells and tumors
same,"Expected absorbed dose, Liver",[2]; [3],9.34E-04 mSv/MBq
same,"Expected absorbed dose, Thymus",[2]; [3],5.08E-06 rem/mCi
same,Dose-limiting organ,"[2]; human projection, preliminary",The absorbed doses in the kidney propose it as the dose-limiting organ

# Source: article PMC8200818, “SPECT/CT Imaging, Biodistribution and Radiation Dosimetry of a ^177Lu-DOTA-Integrin αvβ6 Cystine Knot Peptide in a Pancreatic Cancer Xenograft Model” (Frontiers in Oncology, 2021)
